Article PMC11169542, “A probe for NIR-II imaging and multimodal analysis of early Alzheimer’s disease by targeting CTGF” (Nature Communications, 2024)
Ends that are not written are not given here.

Assays:
[1] = biological target: T1, CTGF (Homo sapiens, UniProt P29279); assay: ICP-MS of Au content in DGC-labelled human brain sections; parameters: The brain tissue samples of autopsy-confirmed AD patients were obtained from the Chinese Brain Bank Center; from tissue; host or cells: postmortem human brain sections (hippocampus, cortex) of AD patients and healthy controls; ICP-MS (Au content): unit not given here
T1 sequence (P29279 27-349): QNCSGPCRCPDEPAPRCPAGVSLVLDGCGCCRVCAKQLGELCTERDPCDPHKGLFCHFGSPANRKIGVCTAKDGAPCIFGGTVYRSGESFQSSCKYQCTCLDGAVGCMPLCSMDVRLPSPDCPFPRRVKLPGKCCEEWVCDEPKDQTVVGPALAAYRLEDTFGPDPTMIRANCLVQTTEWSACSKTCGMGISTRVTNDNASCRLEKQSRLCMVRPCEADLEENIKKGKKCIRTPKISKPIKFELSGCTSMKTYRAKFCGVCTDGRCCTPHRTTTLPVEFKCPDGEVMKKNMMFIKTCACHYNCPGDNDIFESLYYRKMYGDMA
Method: (§1) The brain tissue samples of autopsy-confirmed AD patients were obtained from the Chinese Brain Bank Center (CBBC) and Human Brain Bank, Central South University Xiangya School of Medicine. First, the brain sections were air-dried for 15 min at room temperature, followed by immersion in water. 5% H2O2 was applied for 15 min at room temperature. The sections were washed three times with PBS for 5 min each time. Then, tissue repair was performed using trypsin at a temperature of 37 °C for 5 min and washed three times with PBS. We chose 10% sheep serum to block for a duration of 20 min at 37°. Primary antibodies (CTGF antibody and Aβ antibody) were added to the sections overnight at 4 °C. FITC-labeled Goat Anti-Rabbit IgG (H + L) (1: dilution 1:200, Bioss, Cat#bs-0370R-FITC) was applied and incubated at 37 °C for 20 min in darkness. Subsequent washing steps involved rinsing the sections three times with PBS, each time lasting for 5 min while avoiding exposure to light. DAPI staining was performed, taking care to store the samples away from light during the 5-min procedure. Then observed by the CLSM system. Then, we chose the optimal incubation concentration of DGC (200 μM) was used to determine the conditions using DAB Horseradish Peroxidase Color Development Kit. After the brain sections were co-stained by DGC (200 μM) at 4 °C overnight, a DAB chromogenic agent was added to the brain tissue sections to explore whether DGC can catalyze DAB solutions to produce insoluble brown precipitate to attach the brain tissue sections with an optical microscope. Finally, the brain tissue sections were digested with aqua regia to measure the Au content by the ICP-MS system.

[2] = biological target: T1, CTGF; assay: DGC fluorescence labelling of human postmortem brain sections; parameters: The brain tissue samples of autopsy-confirmed AD patients were obtained from the Chinese Brain Bank Center; from tissue; host or cells: postmortem human brain sections (hippocampus, cortex) of AD patients and healthy controls; settings: for fluorescence (FL) intensity of DGC: cortex section, ImageJ
Method: as §1

[3] = biological target: T2, CTGF (Mus musculus, UniProt P29268); assay: In vivo NIR-II imaging of brain after DGC injection; parameters: species or system APP/PS1 and wild-type C57BL/6J mice; settings: APP/PS1 mice
T2 construct: brain sections of the age-matched wild-type C57BL/6J mice were used as controls; from tissue; host or cells: brain of APP/PS1 transgenic and wild-type C57BL/6J mice (sections, living animal, perfused isolated brain)
T2 sequence (P29268 26-348): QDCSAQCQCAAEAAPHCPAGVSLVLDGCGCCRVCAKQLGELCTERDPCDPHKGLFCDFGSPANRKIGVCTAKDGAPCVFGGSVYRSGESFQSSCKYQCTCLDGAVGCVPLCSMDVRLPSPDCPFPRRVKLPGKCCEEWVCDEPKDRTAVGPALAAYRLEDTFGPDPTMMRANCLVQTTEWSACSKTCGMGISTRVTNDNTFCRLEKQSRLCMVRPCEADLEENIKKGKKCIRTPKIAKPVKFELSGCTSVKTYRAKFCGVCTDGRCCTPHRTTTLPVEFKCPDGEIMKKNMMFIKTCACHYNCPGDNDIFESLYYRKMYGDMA
Method: All animal procedures were performed under an approved protocol of the Ethics Committee of Beijing University of Technology, China. Female APP/PS1 mice and age-matched wild-type C57BL/6J mice were shaved before background imaging. For NIR-II imaging in vivo with DGC, the mice (n = 3) were fasted overnight before the experiment and then injected intravenously with DGC (20 mg/kg, 200 μL). NIR-II imaging of the brains was carried out on an In vivo Master (Grand-imaging Technology) equipped with an InGaAs camera C-RED2 (Firstlight) at different time points after injection of DGC (λ ex = 808 nm, 1000 nm longpass (LP) filter (Edmund Optics)). The excitation intensity of the 808 nm laser (Wuhan Grand-imaging Technology) was about […] and the optical images were acquired using an exposure time of 50 ms. Imaging data were analyzed by ImageJ software.

[4] = AD 1, Cortex section stained with DGC
[5] = AD 1, Hippocampus section stained with DGC
[6] = AD 2, Cortex section stained with DGC
[7] = AD 2, Hippocampus section stained with DGC
[8] = HC 1, Cortex section stained with DGC
[9] = HC 1, Hippocampus section stained with DGC
[10] = HC 2, Cortex section stained with DGC
[11] = HC 2, Hippocampus section stained with DGC

- Au Content (DGC) per cm^2 by ICP-MS ([1]; Case 1 (healthy control, Thal 0) brain section, section 1): 0.1533
- Au Content (DGC) per cm^2 by ICP-MS ([1]; Case 1 (healthy control, Thal 0) brain section, section 2): 0.3279
- Au Content (DGC) per cm^2 by ICP-MS ([1]; Case 1 (healthy control, Thal 0) brain section, section 3): 0.1558
- Au Content (DGC) per cm^2 by ICP-MS ([1]; Case 2 (healthy control, Thal 0) brain section, section 1): 0.09047
- Au Content (DGC) per cm^2 by ICP-MS ([1]; Case 2 (healthy control, Thal 0) brain section, section 2): 0.265
- Au Content (DGC) per cm^2 by ICP-MS ([1]; Case 2 (healthy control, Thal 0) brain section, section 3): 0.06474
- Au Content (DGC) per cm^2 by ICP-MS ([1]; Case 3 (AD, Thal 1) brain section, section 1): 0.6218
- Au Content (DGC) per cm^2 by ICP-MS ([1]; Case 3 (AD, Thal 1) brain section, section 2): 0.4537
- Au Content (DGC) per cm^2 by ICP-MS ([1]; Case 3 (AD, Thal 1) brain section, section 3): 0.399
- Au Content (DGC) per cm^2 by ICP-MS ([1]; Case 4 (AD, Thal 1) brain section, section 1): 0.5318
- Au Content (DGC) per cm^2 by ICP-MS ([1]; Case 4 (AD, Thal 1) brain section, section 2): 0.7576
- Au Content (DGC) per cm^2 by ICP-MS ([1]; Case 4 (AD, Thal 1) brain section, section 3): 0.7155
- FL Intensity [2, 4]: 8.08
- FL Intensity [2, 5]: 9.357
- FL Intensity [2, 6]: 14.1982
- FL Intensity [2, 7]: 17.484
- fluorescence (FL) intensity of DGC ([2]; Case 1 (healthy control, Thal 0), section 1): 0.3032
- fluorescence (FL) intensity of DGC ([2]; Case 1 (healthy control, Thal 0), section 2): 0.3289
- fluorescence (FL) intensity of DGC ([2]; Case 1 (healthy control, Thal 0), section 3): 0.3505
- fluorescence (FL) intensity of DGC ([2]; Case 2 (healthy control, Thal 0), section 1): 0.2446
- fluorescence (FL) intensity of DGC ([2]; Case 2 (healthy control, Thal 0), section 2): 0.3615
- fluorescence (FL) intensity of DGC ([2]; Case 2 (healthy control, Thal 0), section 3): 0.163
- fluorescence (FL) intensity of DGC ([2]; Case 3 (AD, Thal 1), section 1): 0.6904
- fluorescence (FL) intensity of DGC ([2]; Case 3 (AD, Thal 1), section 2): 0.8926
- fluorescence (FL) intensity of DGC ([2]; Case 3 (AD, Thal 1), section 3): 0.6063
- fluorescence (FL) intensity of DGC ([2]; Case 4 (AD, Thal 1), section 1): 0.9911
- fluorescence (FL) intensity of DGC ([2]; Case 4 (AD, Thal 1), section 2): 1.101
- fluorescence (FL) intensity of DGC ([2]; Case 4 (AD, Thal 1), section 3): 1.556
- FL Intensity [2, 8]: 1.2358
- FL Intensity [2, 9]: 1.043
- FL Intensity [2, 10]: 1.632
- FL Intensity [2, 11]: 6.0176
Substance: DGC: CTGF-targeting peptide-coated gold nanocluster: one Au26 gold nanocluster coated by eight DAG cyclic peptides, NIR-II and red fluorescence (CDAGRKQKC; also: cyclic peptide, ring not given here, eight peptides on one Au26 nanocluster via Cys Au-S bonds)
- ICP-MS (Au content) [1, 4]: 16.9799
- ICP-MS (Au content) [1, 5]: 24.3713
- ICP-MS (Au content) [1, 6]: 28.448
- ICP-MS (Au content) [1, 7]: 30.5308
- ICP-MS (Au content) [1, 8]: 3.7846
- ICP-MS (Au content) [1, 9]: 2.83
- ICP-MS (Au content) [1, 10]: 3.7846
- ICP-MS (Au content) [1, 11]: 11.6586
- NIR-II fluorescence in the brains ([3]; 24 h after injection): still observed
- time of peak brain NIR-II signal ([3]; after tail vein injection of DGC): 4 h
